This note sets out measurements from US20240383999A1 (University of Texas, published 2024).

B1: R-21 (antibody, V domains shown)
VH: QSVEESGGRLVTPGTPLTLTCTVSGIDLSSYAINWVRQAPGEGLEWIGMISSSDNTYYANWAKGRFTISRDSTTVDLKITSPTTEDTATYFCARFYAGRSYSLWGQGTLVTISS
VL: ELDLTQTPASVSAAVGGTVTISCQSSESVYKSNYLSWYQQKAGQPPKLLIYAAATLASGVPSRFKGSGSGTQFTLTISGVQCDDAATYYCQGTYYSSGWYNAFGGGTEVVVK
B2: R-49 (antibody, V domains shown)
VH: QSVKESGGRLVTPGTPLTLTCTVSGFSLSINAINWVRQAPGKGLEWIGIITNIGNTYYASWAKGRFTISRTSTTVDLTMTSLTTEDTATYFCARNSYFDPWGPGTLVTISS
VL: ELVLTQTPSPVSAAVGGTVSISCQASQSVDSNNYCSWYQQKPGQPPKLLIHKASKLASGVPSRFKGSGSGTQFTLTINDLECDDAATYYCAGGLGDNIYAFGGGTEVEIN
B3: R-4 (antibody, V domains shown)
VH: QSVEESGGRLVTPGTPLTLTCTASGFSLSSYYMTWVRQAPGKGLEYIGIISDRGSTYYASWAKGRFTIAKTSSTTVDLKLTSLTTEDTATYFCYRGVDGSGGYAAGDLWGQGTLVTISS
VL: ELVLTQTPASVEAAVGGTVTIKCQASEDIYSYFAWYQQKPGQRPRLLIYEASKVASGVPSRFKGGGSGTQFTLTISDLECADAATYYCQNNFYMIGDDYGGTFGGGTEVEIK
B4: R-23 (antibody, V domains shown)
VH: QSVEESGGRLVMPGGSLTLTCTVSGIDLSSNTMGWFRQAPGKGLEWIGIMRGGGSTYYATWAKGRFTISKTSTTVDLKLTSPTTEDTATYFCARAFPGYNSFFNFWGQGTLVTISS
VL: ELDLTQTPASVSEPVGGTVTIKCQASHNINSALAWYQQKPGQPPKLLIYKASTLASGVPPRFKGSGSGTEFTLTISDLECADAATYYCQRHYFDGASADIAFGGGTEVVVK
B5: R-10 (antibody, V domains shown)
VH: QSVKESGGRLVTPGTPLTLTCTLSGIDLSSYAMGWVRQAPGKGLEYIGIIGASGTTYYANWAKGRFTISRTSTTVDLKITSPTTEDTATYFCARAGYAGTGYPTRLDLWGQGTLVTISS
VL: ELDMTQTPASVEAAVGGTVTIKCQASQSISSSYLAWYQQKPGQPPKLLIYKASTLESGVPSRFSGSGSGTEFTLTISGVQCDDAATYYCLGGYFSFSNYDYGFGGGTEVEIK
B6: R-51 (antibody, V domains shown)
VH: QSVKESGGRLVTPGTPLTLTCTVSTIDVSKYAVIWVRQAPGKGLEYIGIISSSGSTYYASWAKGRFTISKTSSTTVDLKMTSPTAEDTATYFCARGGNGVAFKLWGQGTLVTISS
VL: ELDLTQTPASVEAAVGGTVTINCQASQSIYSSLAWYQQKPGQPPKLLIYETSKVESGVPSRFSGSGSGTQFTLTISDLECADAATYYCQSHDYISSSGMPFGGGTELEIL
B7: R-6 (antibody, V domains shown)
VH: QSLEESGGRLVTPGTPLTLTCTVSTIDVSKYAVIWVRQAPGKGLEYIGIISSSGSTYYASWAKGRFTISKTSSTTVDLKMTSPTAEDTATYFCARGGNGVAFKLWGQGTLVTISS
VL: ELDMTQTPASVEAAVGGTVTINCQASESINDRLAWYQLKPGQPPKLLIYETSQVESGVPSRFSGSGSGTQFTLTISDLECADAATYYCQSHDYISSSGMPFGGGTEVVVK
B8: R-9 (antibody, V domains shown)
VH: QSVKESGGRLVTPGTPLTLTCTVSGFYLSTHGMTWVRQAPGKGLEYIGVIVTSGNTYYATWATGRFTISKTSTTVDLKITSPTTEDTATYFCARPGYKSVPLWGQGTLVTISS
VL: ELDLTQTPASVSAAVGGTVTINCQASEDIYSGLTWYQQKPGQPPKLLIYRASTLASGVPPRFKGSGSGTEFTLTISDLECDDAATYYCQNNYGSSSNNYVFAFGGGTEVEIK
B9: R-1 (antibody, V domains shown)
VH: QSVEESGGRLVTPGTPLTLTCTVSGIDLSNYAINWVRQAPGKGLEWIGMISSGDVTYYASWAKGRFIISRTSSTTVDLKMTSPTIEDTATYFCARFFAGRSESLWGQGTLVTVSS
VL: ELDLTQTPSSVSAAVGGTVTINCQSSQSVNKNNYLSWYQQKPGQPPKLLIYSASALASGVSSRFSGSGSGTEFTLTISDVQCDDAATYYCQGTYYDSGWYNAFGGGTEVEIK
B10: R-39 (antibody, V domains shown)
VH: QSLEESGGRLVTPGGSLTLTCTVSGIDLSSYTMGWVRQAPGKGLEWIGVIAINGGTVYASWAKGRFTISKTSTTVDLKMTSPTPEDTATYFCARGAGKTWSSFNLWGQGTLVTISS
VL: ELVLTQTPASVSEPVGGTVTIKCQASQSIGSNLAWYQQKPGQPPKLLIYRASTLESGVPSRFSGSGSGTEFTLTISDLECADAATYYCQSYYGSSTNAFGGGTEVVVK
B11: R-5 (antibody, V domains shown)
VH: QSVKESGGRLVTPGTPLTLTCTVSGFSLSSYAMSWVRQAPGKGLEWIGVIDVTGRTYYASWAKGRFTISKTSTTVDLKITSPTTEDTATYFCGRDSYLDYGDPNGLDPWGPGTLVTISS
VL: ELVMTQTPASVEAAVGGTVTIKCQASQSIGSNLAWYQQKPGQPPKLLIYTASNLAPGVSSRFKGSRSGTESTLIISDLECADAATYYCQCTYYGTSYMELGAFGGGTELEIK
B12: R-29 (antibody, V domains shown)
VH: QSVEESGGRLVTPGTPLTLTCTVSGFSLSSYAMNWVRQAPGKGLEWIGLIYASGTTHYASWVNGRFTISKTSTTVTLKMTSLTAADTATYFCARDSYSTGNLWGQGTLVTISS
VL: ELVLTQTPASVSEPVGGTVTIKCQASQSIYSSLVWYQQKPGQPPKLLIYGASNLESGVPSRFKGSGSGTEYTLTISGVQCADAATYYCQCSGYNSRVFGGGTEVEIK
B13: R-11 (antibody, V domains shown)
VH: QSVKESGGDLVKPGASLTLTCTASGFDFSSNTMCWVRQAPGKGLEYIGYISYSGATHYASWAKGRFTISKTLSTTVTLQMTSLTDADTATYFCARDRGYVDGSYYGDFNLWGPGTLVTVSS
VL: ELVMTQTPSSASEPVGGTVTIKCQASQSIASRLAWFQQKPGQPPKLLIYRASTLESGVSSRFKGSGFGTEFTLTISDLECADAATYYCQSYYGSGYGKTFGGGTDVVVK
B14: R-36 (antibody, V domains shown)
VH: QSVKESGGGLFQPGGSLALTCKASGFSLSKNYVMCWVRQAPGKGLEWIACIYAGDGNTYYVSWAKGRFTISKTSSTTVTLQMTSLTAADTATYFCARWDYIGNNNLWGPGTLVTISS
VL: ELVLTQTPASVEAAVGGTVTIKCQASQTISSYLAWYQQKPGQPPKLLIYRASTLASGVPSRFKGSGSGTQFTLTISDLECADGATYYCQCPYYGSSHVGAFGGGTEVVVK
B15: H-119 (antibody, V domains shown)
VH: EVQLVQSGAEVKKPGESLKISCKGSGYSFTSYWIGWVRQMPGKGLEWMGIIYPGDSDTRYSPSFQGQVTISADKSISTAYLQWSSLKASDTAMYYCARGLAASTRFDPWGQGTLVTVSS
VL: DVQMTQSPSSLSASVGDRVTITCRPSQSINNYLNWYQQKPGEAPKLLIYAASNLQSGVPSRFSGSGSGTDFTLTISSLQPEDFGTYYCQQSYSIPLTFGGGTTVEIK
B16: CD5L-35Hu-1 (antibody, V domains shown)
VH: QVQLVESGGGVVQPGRSLRLSCAASGIDLSDYYMTWVRQAPGKGLEYIGIIYASGNAYFASWAKGRFTISRDSSTNTLFLQMNSLRAEDTAVYYCARNIGGSSNLWGQGTLVTVSS
VL: AIQLTQSPSSLSASVGDRVTITCQASERIYNNLAWYQQKPGKAPKLLFYSASTLASGVPSRFSGSGSGTDFTLTISSLQPEDFATYYCQCTGYGTTYGLVFGGGTKVEIK
notes: also called humanized CD5L-35Hu mAb (CD5L-35Hu-H1 + CD5L-35Hu-K1)
B17: CD5L-35Hu-3 (antibody, V domains shown)
VH: QVQLVESGGGVVQPGRSLRLSCAASGIDLSDYYMTWVRQAPGKGLEYIGIIYASGNAYFASWAKGRFTISRDNSTNTVFLQMNSLRAEDTAVYYCARNIGGSSNLWGQGTLVTVSS
VL: AIQLTQSPSSLSASVGDRVTITCQASERIYNNLAWYQQKPGKAPKLLFYSASTLASGVPSRFSGSGSGTDFTLTISSLQPEDFATYYCQCTGYGTTYGLVFGGGTKVEIK
notes: also called humanized CD5L-35Hu mAb (CD5L-35Hu-H2 + CD5L-35Hu-K1)
B18: CD5L-35Hu-2 (antibody, V domains shown)
VH: QVQLVESGGGVVQPGRSLRLSCAASGIDLSDYYMTWVRQAPGKGLEYIGIIYASGNAYFASWAKGRFTISRDSSTNTLFLQMNSLRAEDTAVYYCARNIGGSSNLWGQGTLVTVSS
VL: ELQLTQTPSSLSASVGDRVTIKCQASERIYNNLAWYQQKPGKAPKLLFYSASTLASGVPSRFSGSGSGTDFTLTISSLQPEDFATYYCQCTGYGTTYGLVFGGGTKVEIK
notes: also called humanized CD5L-35Hu mAb (CD5L-35Hu-H1 + CD5L-35Hu-K2)

Some results are limits rather than exact numbers.

The first test concerns the target T1, Human recombinant CD5L protein (Sino Biological, Catalog Number 10791-H08H) (human, UniProt O43866 20-347).
T1 construct: Bought protein; also called human CD5L; CD5L-His; not shown: 6xHIS-tag
T1 sequence (looked up): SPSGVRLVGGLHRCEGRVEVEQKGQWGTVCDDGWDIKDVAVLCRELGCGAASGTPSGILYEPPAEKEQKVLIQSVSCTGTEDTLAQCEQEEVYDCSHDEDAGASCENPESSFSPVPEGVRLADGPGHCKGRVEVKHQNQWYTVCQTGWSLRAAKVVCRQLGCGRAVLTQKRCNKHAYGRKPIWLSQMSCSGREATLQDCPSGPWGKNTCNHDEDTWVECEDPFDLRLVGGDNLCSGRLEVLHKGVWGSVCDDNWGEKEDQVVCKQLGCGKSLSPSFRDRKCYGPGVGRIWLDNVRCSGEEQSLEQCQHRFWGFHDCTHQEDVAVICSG
Put plainly: titration ELISA, human CD5L coated on plate. The method, then:
FIG. 11. […] Bound antibody was detected using a secondary antibody against rabbit IgG conjugated with HRP and TMB substrate for detection of A450 nm. EC₅₀ was estimated using GraphPad software by applying a 4-parameter fitting to calculate binding affinity of the antibodies.
Binding constants (EC₅₀) of a panel of monoclonal antibodies were estimated by titration ELISA, and the data were analyzed using the 4-parameter curve fitting with GraphPad Prism program (Table 6).
Background: An ELISA detects its analyte on a solid surface through an enzyme-linked reagent.
Consider B1, for which the EC50 (commonly the concentration that produces a half-maximal response) amounted to 0.21 mg/L.

With B2, the EC50 came to 0.0077 mg/L.

For B3, the EC50 is 0.0713 mg/L.

In the case of B4, the EC50 was determined as 0.14 mg/L.

For B5, the EC50 worked out at 0.307 mg/L.

On to B6, for which the EC50 came out at 0.0144 mg/L.

As to B7, the EC50 is 0.187 mg/L.

As for B8, the EC50 was found to be 0.136 mg/L.

Turning to B9, the EC50 came to 0.0598 mg/L.

Regarding B10, the EC50 was 0.246 mg/L.

B11: the EC50 was determined as 0.148 mg/L.

As for B12, the EC50 is 0.161 mg/L.

As to B13, the EC50 turned out to be 0.0474 mg/L.

In the case of B14, the EC50 amounted to 0.278 mg/L.

Consider B15, for which the EC50 stood at 0.0068 mg/L.

In the next test the target is T1, Human recombinant CD5L protein (Sino …). Put plainly: BLI (Octet RED96), antibody on Protein A biosensors, CD5L-His in solution, global fit. The procedure: Kinetic binding parameters (KD, kon, and koff) in (Table 11) were determined using Octet RED96 instrument and binding curves are shown in FIG. 17. […] KDs are calculated using Octet software with global fitting model.
With B16, the Kd (as a rule, the concentration at which binding is half-saturated) is less than 1 pM; the koff – broadly, the first-order rate constant of dissociation – was less than 1e-07 s⁻¹; the kon (commonly a measure of how fast the partners come together) came to 146000 M⁻¹ s⁻¹.

Turning to B17, the Kd is less than 1 pM, the koff was less than 1e-07 s⁻¹ and the kon was determined as 119000 M⁻¹ s⁻¹.

As for B18, the Kd was less than 1 pM, the koff was less than 1e-07 s⁻¹ and the on-rate (kon) worked out at 125000 M⁻¹ s⁻¹.
